Series [1] has as its target T1, fluorescein-labeled P5 peptide (also: fluorescein label, position not given here).
T1 peptide: CALLLSAPRR
Nature of the series: fluorescence polarisation. In general terms: In fluorescence polarisation assays a small probe gives low polarisation when free and higher when bound to something large.

In series [2] the test system is Ssc1. In words: Single-turnover basal ATPase assay, Ssc1. The class given is biochemical, S. cerevisiae. The note with it: 25°C; for fold increase in basal ATPase activity: buffer A, versus wild type.
A further series deals with yeast cells. In words: Growth phenotype. Format: cell-based, S. cerevisiae. The conditions noted are these: minimal medium or 5-FOA medium, serial dilutions.
Series [3] concerns Ssc1. Nature of the series: Stimulation of ATPase activity by P5 peptide, Ssc1. The class given is biochemical, S. cerevisiae. The conditions noted are these: 100-fold molar excess P5, single-turnover.

Entries after “also recorded” stand apart in the source; their conditions may differ. No end group written: not given here.

B1: Ssc1 E467A suppressor S205 (E467A, N508K), purified (natural protein, S. cerevisiae, UniProt P0CS90 24-654, looked up)
chain: QSTKVQGSVIGIDLGTTNSAVAIMEGKVPKIIENAEGSRTTPSVVAFTKEGERLVGIPAKRQAVVNPENTLFATKRLIGRRFEDAEVQRDIKQVPYKIVKHSNGDAWVEARGQTYSPAQIGGFVLNKMKETAEAYLGKPVKNAVVTVPAYFNDSQRQATKDAGQIVGLNVLRVVNEPTAAALAYGLEKSDSKVVAVFDLGGGTFDISILDIDNGVFEVKSTNGDTHLGGEDFDIYLLREIVSRFKTETGIDLENDRMAIQRIREAAEKAKIELSSTVSTEINLPFITADASGPKHINMKFSRAQFETLTAPLVKRTVDPVKKALKDAGLSTSDISEVLLVGGMSRMPKVVETVKSLFGKDPSKAVNPDEAVAIGAAVQGAVLSGEVTDVLLLDVTPLSLGIETLGGVFTRLIPRNTTIPTKKSQIFSTAAAGQTSVEIRVFQGARELVRDNKLIGNFTLAGIPPAPKGVPQIEVTFDIDADGIIKVSARDKATNKDSSITVAGSSGLSENEIEQMVNDAEKFKSQDEARKQAIETANKADQLANDTENSLKEFEGKVDKAEAQKVRDQITSLKELVARVQGGEEVNAEELKTKTEELQTSSMKLFEQLYKNDSNNNNNNNGNNAESGETKQ
As for B1, the “substrate release upon ATP binding” value in series [1] is more than 50%.

B2: Q465A (protein)
chain: QSTKVQGSVIGIDLGTTNSAVAIMEGKVPKIIENAEGSRTTPSVVAFTKEGERLVGIPAKRQAVVNPENTLFATKRLIGRRFEDAEVQRDIKQVPYKIVKHSNGDAWVEARGQTYSPAQIGGFVLNKMKETAEAYLGKPVKNAVVTVPAYFNDSQRQATKDAGQIVGLNVLRVVNEPTAAALAYGLEKSDSKVVAVFDLGGGTFDISILDIDNGVFEVKSTNGDTHLGGEDFDIYLLREIVSRFKTETGIDLENDRMAIQRIREAAEKAKIELSSTVSTEINLPFITADASGPKHINMKFSRAQFETLTAPLVKRTVDPVKKALKDAGLSTSDISEVLLVGGMSRMPKVVETVKSLFGKDPSKAVNPDEAVAIGAAVQGAVLSGEVTDVLLLDVTPLSLGIETLGGVFTRLIPRNTTIPTKKSQIFSTAAAGQTSVEIRVFAGERELVRDNKLIGNFTLAGIPPAPKGVPQIEVTFDIDADGIINVSARDKATNKDSSITVAGSSGLSENEIEQMVNDAEKFKSQDEARKQAIETANKADQLANDTENSLKEFEGKVDKAEAQKVRDQITSLKELVARVQGGEEVNAEELKTKTEELQTSSMKLFEQLYKNDSNNNNNNNGNNAESGETKQ
modifications: left off: His6, end not stated, state not stated
With B2, in the series on Ssc1 [2], the “fold increase in basal ATPase activity” value is 2.25 fold. For the same molecule, the “growth phenotype, in words” value in the series with yeast cells was “viable at 30 °C but displayed temperature sensitivity at 34 and 37 °C”.

B3: S209 (protein)
chain: QSTKVQGSVIGIDLGTTNSAVAIMEGKVPKIIENAEGSRTTPSVVAFTKEGERLVGIPAKRQAVVNPENTLFATKRLIGRRFEDAEVQRDIKQVPYKIVKHSNGDAWVEARGQTYSPAQIGGFVLNKMKETAEAYLGKPVKNAVVTVPAYFNDSQRQATKDAGQIVGLNVLRVVNEPTAAALAYGLEKSDSKVVAVFDLGGGTFDISILDIDNGVFEVKSTNGDTHLGGEDFDIYLLREIVSRFKTETGIDLENDRMAIQRIREAAEKAKIELSSTVSTEINLPFITADASGPKHINMKFSRAQFETLTAPLVKRTVDPVKKALKDAGLSTSDISEVLLVGGMSRMPKVVETVKSLFGKDPSKAVNPDEAVAIGAAVQGAVLSGEVTDVLLLDVTPLSLGIETLGGVFTRLIPRNTTIPTKKSQIFSTAAAGQTSVEIRVFQGARELVRDNKLIGNFTLAGIPPAPRGVPQIEVTFDIDADGIINVSARDKATNKDSSITVAGSSGLSENEIEQMVNDAEKFKSQDEARKQAIETANKADQLANDTENSLKEFEGKVDKAEAQKVRDQITSLKELVARVQGGEEVNAEELKTKTEELQTSSMKLFEQLYKNDSNNNNNNNGNNAESGETKQ
modifications: left off: His6, end not stated, state not stated
B3: the “stimulation of ATPase activity by P5, in words” value in the series on Ssc1 [3] was “could stimulate ATPase activity similar to wild-type levels; also recorded: augment peptide-mediated ATPase stimulation”. In the series on Ssc1 [2], the “basal ATPase activity, in words” value is reported as “able to suppress the elevated basal activity of the mutant”.

B4: G466E (protein)
chain: QSTKVQGSVIGIDLGTTNSAVAIMEGKVPKIIENAEGSRTTPSVVAFTKEGERLVGIPAKRQAVVNPENTLFATKRLIGRRFEDAEVQRDIKQVPYKIVKHSNGDAWVEARGQTYSPAQIGGFVLNKMKETAEAYLGKPVKNAVVTVPAYFNDSQRQATKDAGQIVGLNVLRVVNEPTAAALAYGLEKSDSKVVAVFDLGGGTFDISILDIDNGVFEVKSTNGDTHLGGEDFDIYLLREIVSRFKTETGIDLENDRMAIQRIREAAEKAKIELSSTVSTEINLPFITADASGPKHINMKFSRAQFETLTAPLVKRTVDPVKKALKDAGLSTSDISEVLLVGGMSRMPKVVETVKSLFGKDPSKAVNPDEAVAIGAAVQGAVLSGEVTDVLLLDVTPLSLGIETLGGVFTRLIPRNTTIPTKKSQIFSTAAAGQTSVEIRVFQEERELVRDNKLIGNFTLAGIPPAPKGVPQIEVTFDIDADGIINVSARDKATNKDSSITVAGSSGLSENEIEQMVNDAEKFKSQDEARKQAIETANKADQLANDTENSLKEFEGKVDKAEAQKVRDQITSLKELVARVQGGEEVNAEELKTKTEELQTSSMKLFEQLYKNDSNNNNNNNGNNAESGETKQ
modifications: left off: His6, end not stated, state not stated
B4: the “fold increase in basal ATPase activity” value in the series with Ssc1 [2] came to 11 fold. The “growth phenotype, in words” value in the series on yeast cells was “lethal and unable to grow on 5-FOA medium”.

B5: Ssc1 E467A suppressor S207 (E467A, N508T), purified (natural protein, S. cerevisiae, UniProt P0CS90 24-654, looked up)
chain: QSTKVQGSVIGIDLGTTNSAVAIMEGKVPKIIENAEGSRTTPSVVAFTKEGERLVGIPAKRQAVVNPENTLFATKRLIGRRFEDAEVQRDIKQVPYKIVKHSNGDAWVEARGQTYSPAQIGGFVLNKMKETAEAYLGKPVKNAVVTVPAYFNDSQRQATKDAGQIVGLNVLRVVNEPTAAALAYGLEKSDSKVVAVFDLGGGTFDISILDIDNGVFEVKSTNGDTHLGGEDFDIYLLREIVSRFKTETGIDLENDRMAIQRIREAAEKAKIELSSTVSTEINLPFITADASGPKHINMKFSRAQFETLTAPLVKRTVDPVKKALKDAGLSTSDISEVLLVGGMSRMPKVVETVKSLFGKDPSKAVNPDEAVAIGAAVQGAVLSGEVTDVLLLDVTPLSLGIETLGGVFTRLIPRNTTIPTKKSQIFSTAAAGQTSVEIRVFQGARELVRDNKLIGNFTLAGIPPAPKGVPQIEVTFDIDADGIITVSARDKATNKDSSITVAGSSGLSENEIEQMVNDAEKFKSQDEARKQAIETANKADQLANDTENSLKEFEGKVDKAEAQKVRDQITSLKELVARVQGGEEVNAEELKTKTEELQTSSMKLFEQLYKNDSNNNNNNNGNNAESGETKQ
On to B5, for which the “substrate release upon ATP binding” value in series [1] was more than 50%.

B6: Ssc1 E467A suppressor S209 (E467A, K490R), purified (natural protein, S. cerevisiae, UniProt P0CS90 24-654, looked up)
chain: QSTKVQGSVIGIDLGTTNSAVAIMEGKVPKIIENAEGSRTTPSVVAFTKEGERLVGIPAKRQAVVNPENTLFATKRLIGRRFEDAEVQRDIKQVPYKIVKHSNGDAWVEARGQTYSPAQIGGFVLNKMKETAEAYLGKPVKNAVVTVPAYFNDSQRQATKDAGQIVGLNVLRVVNEPTAAALAYGLEKSDSKVVAVFDLGGGTFDISILDIDNGVFEVKSTNGDTHLGGEDFDIYLLREIVSRFKTETGIDLENDRMAIQRIREAAEKAKIELSSTVSTEINLPFITADASGPKHINMKFSRAQFETLTAPLVKRTVDPVKKALKDAGLSTSDISEVLLVGGMSRMPKVVETVKSLFGKDPSKAVNPDEAVAIGAAVQGAVLSGEVTDVLLLDVTPLSLGIETLGGVFTRLIPRNTTIPTKKSQIFSTAAAGQTSVEIRVFQGARELVRDNKLIGNFTLAGIPPAPRGVPQIEVTFDIDADGIINVSARDKATNKDSSITVAGSSGLSENEIEQMVNDAEKFKSQDEARKQAIETANKADQLANDTENSLKEFEGKVDKAEAQKVRDQITSLKELVARVQGGEEVNAEELKTKTEELQTSSMKLFEQLYKNDSNNNNNNNGNNAESGETKQ
As for B6, the “substrate release upon ATP binding” value in series [1] was more than 50%.

B7: Ssc1 E467A suppressor S208 (E467A, D519G), purified (natural protein, S. cerevisiae, UniProt P0CS90 24-654, looked up)
chain: QSTKVQGSVIGIDLGTTNSAVAIMEGKVPKIIENAEGSRTTPSVVAFTKEGERLVGIPAKRQAVVNPENTLFATKRLIGRRFEDAEVQRDIKQVPYKIVKHSNGDAWVEARGQTYSPAQIGGFVLNKMKETAEAYLGKPVKNAVVTVPAYFNDSQRQATKDAGQIVGLNVLRVVNEPTAAALAYGLEKSDSKVVAVFDLGGGTFDISILDIDNGVFEVKSTNGDTHLGGEDFDIYLLREIVSRFKTETGIDLENDRMAIQRIREAAEKAKIELSSTVSTEINLPFITADASGPKHINMKFSRAQFETLTAPLVKRTVDPVKKALKDAGLSTSDISEVLLVGGMSRMPKVVETVKSLFGKDPSKAVNPDEAVAIGAAVQGAVLSGEVTDVLLLDVTPLSLGIETLGGVFTRLIPRNTTIPTKKSQIFSTAAAGQTSVEIRVFQGARELVRDNKLIGNFTLAGIPPAPKGVPQIEVTFDIDADGIINVSARDKATNKGSSITVAGSSGLSENEIEQMVNDAEKFKSQDEARKQAIETANKADQLANDTENSLKEFEGKVDKAEAQKVRDQITSLKELVARVQGGEEVNAEELKTKTEELQTSSMKLFEQLYKNDSNNNNNNNGNNAESGETKQ
For B7, in series [1], the “substrate release upon ATP binding” value is more than 50%.
